B1: fBIgG-2 (ssDNA)
DNA: CCAGATACAGACCCGAGGTGAGAATTTCAACCATCGGCGCCAACAAAACATTCTCTCAGATACAGTAGACAGC
modifications: 5' thiol (immobilized on gold)

Columns and labels:
[1] = system: immunoglobulin G (IgG), pooled; experiment: SPR; conditions: 5' thiol (immobilized on gold); SPR imaging, aptamer immobilized on gold chip; IgG 250 nM; ka 3.69E5, kd 7.56E-3
[2] = molecular target: human serum albumin (HSA) (Homo sapiens, UniProt P02768 P02768:25-609); experiment: SPR; counter-target; 250 nM HSA; aptamer described as selected to bind IgG and not HSA; curve only in figure
Chain of human serum albumin (HSA) (P02768 25-609, one chain of several): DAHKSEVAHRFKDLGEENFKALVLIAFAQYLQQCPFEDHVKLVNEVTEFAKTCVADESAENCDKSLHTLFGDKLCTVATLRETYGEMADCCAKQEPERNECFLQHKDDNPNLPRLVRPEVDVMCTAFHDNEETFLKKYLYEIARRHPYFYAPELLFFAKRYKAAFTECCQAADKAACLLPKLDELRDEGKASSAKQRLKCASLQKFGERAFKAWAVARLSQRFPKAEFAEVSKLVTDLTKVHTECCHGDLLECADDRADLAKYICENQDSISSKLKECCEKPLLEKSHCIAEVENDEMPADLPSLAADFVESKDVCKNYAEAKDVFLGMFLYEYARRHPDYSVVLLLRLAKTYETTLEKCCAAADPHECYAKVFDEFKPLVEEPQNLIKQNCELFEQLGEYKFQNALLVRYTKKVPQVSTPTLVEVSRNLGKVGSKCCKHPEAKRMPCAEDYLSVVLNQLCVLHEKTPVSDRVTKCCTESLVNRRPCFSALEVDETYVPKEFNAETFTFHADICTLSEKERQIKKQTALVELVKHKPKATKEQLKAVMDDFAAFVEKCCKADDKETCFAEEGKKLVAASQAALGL
Method: These sequences were synthesized with a 5′ thiol and immobilized onto a gold surface in triplicate spots at a concentration of 5 uM in a volume of 10 nL. A negative aptamer of the same length not selected for binding to serum albumin was also spotted on the gold chips in the same manner. These were allowed to dry, and the remainder of the surface was blocked with thiolylated polyethylene glycol with an average molecular weight of 5 kda. The gold chips were then inserted on top of a glass prism in a Horiba Openplex Surface Plasmon Resonance imaging instrument (SPRi). Human serum albumin at two concentrations (100 nM and 250 nM) was injected over the chip at a volume of 200 uL and a flow rate of 50 uL/min. We also injected a pool of immunoglobulin (IgG) at a concentration of 250 nM at the same volume and flow rates.
Binding analysis for the selected IgG sequences was performed in a manner identical to that described for the HSA sequences.

Row | Molecule | Kd [1] [nM] | binding result [2]
1 | CCAGATACAGACCCGAGGTGAGAATTTCAACCATCGGCGCCAACAAAACATTCTCTCAGATACAGTAGACAGC [fBIgG-2] | 20.5 | 
2 | B1 |  | no binding
